This is an account of results in article PMC7610968 (Molecular cell, 2007).

This assay addresses T1, szz-tagged mutant Rrp44-cat protein (S. cerevisiae, UniProt Q08162 1-1001, D551N).
T1 sequence (looked up): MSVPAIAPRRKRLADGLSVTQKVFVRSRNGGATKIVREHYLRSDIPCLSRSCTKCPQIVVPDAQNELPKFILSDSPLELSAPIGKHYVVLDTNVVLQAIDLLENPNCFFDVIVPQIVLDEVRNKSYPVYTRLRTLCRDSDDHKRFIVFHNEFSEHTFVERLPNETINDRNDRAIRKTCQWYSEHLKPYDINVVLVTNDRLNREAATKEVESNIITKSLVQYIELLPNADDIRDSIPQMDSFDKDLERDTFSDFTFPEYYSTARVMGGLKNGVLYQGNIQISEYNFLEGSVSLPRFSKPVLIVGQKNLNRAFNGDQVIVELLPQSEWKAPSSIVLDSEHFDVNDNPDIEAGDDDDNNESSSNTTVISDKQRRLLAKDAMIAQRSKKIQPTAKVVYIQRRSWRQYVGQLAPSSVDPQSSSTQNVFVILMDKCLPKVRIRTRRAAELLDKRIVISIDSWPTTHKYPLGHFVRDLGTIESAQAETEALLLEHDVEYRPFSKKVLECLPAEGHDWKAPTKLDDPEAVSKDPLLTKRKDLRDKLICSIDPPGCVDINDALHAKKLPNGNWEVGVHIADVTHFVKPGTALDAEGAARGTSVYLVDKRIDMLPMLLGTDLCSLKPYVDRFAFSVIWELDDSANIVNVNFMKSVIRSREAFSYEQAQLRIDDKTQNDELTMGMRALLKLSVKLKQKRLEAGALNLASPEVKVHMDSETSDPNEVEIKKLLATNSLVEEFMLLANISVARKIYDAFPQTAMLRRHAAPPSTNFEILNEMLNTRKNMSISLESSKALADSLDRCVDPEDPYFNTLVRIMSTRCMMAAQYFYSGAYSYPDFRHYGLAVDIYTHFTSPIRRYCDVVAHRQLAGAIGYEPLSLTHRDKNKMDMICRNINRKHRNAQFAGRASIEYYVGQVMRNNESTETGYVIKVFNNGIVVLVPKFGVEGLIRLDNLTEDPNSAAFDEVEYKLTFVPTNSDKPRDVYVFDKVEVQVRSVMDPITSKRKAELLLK
Kind of assay: co-IP.

B1: Rrp6 (natural protein, UniProt Q12149 1-733, looked up)
chain: MTSENPDVLLSRVINVVRAASSLASQDVDFYKNLDRGFSKDLKSKADKLADMANEIILSIDEHHESFELKEEDISDLWNNFGNIMDNLLEMSDHSLDKLNCAINSKSRGSDLQYLGEFSGKNFSPTKRVEKPQLKFKSPIDNSESHPFIPLLKEKPNALKPLSESLRLVDDDENNPSHYPHPYEYEIDHQEYSPEILQIREEIPSKSWDDSVPIWVDTSTELESMLEDLKNTKEIAVDLEHHDYRSYYGIVCLMQISTRERDYLVDTLKLRENLHILNEVFTNPSIVKVFHGAFMDIIWLQRDLGLYVVGLFDTYHASKAIGLPRHSLAYLLENFANFKTSKKYQLADWRIRPLSKPMTAYARADTHFLLNIYDQLRNKLIESNKLAGVLYESRNVAKRRFEYSKYRPLTPSSEVYSPIEKESPWKILMYQYNIPPEREVLVRELYQWRDLIARRDDESPRFVMPNQLLAALVAYTPTDVIGVVSLTNGVTEHVRQNAKLLANLIRDALRNIKNTNEEATPIPSSETKADGILLETISVPQIRDVMERFSVLCNSNISKSRAKPVTNSSILLGKILPREEHDIAYSKDGLPNKVKTEDIRIRAQNFKSALANLEDIIFEIEKPLVVPVKLEEIKTVDPASAPNHSPEIDNLDDLVVLKKKNIQKKQPAKEKGVTEKDAVDYSKIPNILSNKPGQNNRQQKKRRFDPSSSDSNGPRAAKKRRPAAKGKNLSFKR
In the case of B1, the “fold recovered against wild-type Rrp44-szz” value was roughly 2 fold.
